In patent publication US20050282743A1, “Molecular interactions in cells” (Arbor Vita Corporation, priority 2001, published 2005):
One block for each binder: values may come before it.

Key:
Assay in all cases: G' assay
[1] = target: GST-KIAA807 [GST: P08515]
[2] = target: T1, GST-APXL-1 PDZ domain 1 (Homo sapiens (Human)), Q13796
T1 chain: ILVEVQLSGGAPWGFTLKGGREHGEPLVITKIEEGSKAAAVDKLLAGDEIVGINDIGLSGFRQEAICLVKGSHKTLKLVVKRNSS

[3] = target: T2, GST-KIAA0807(S) PDZ domain 1 (Homo sapiens (Human)), Q6P0Q8
T2 chain: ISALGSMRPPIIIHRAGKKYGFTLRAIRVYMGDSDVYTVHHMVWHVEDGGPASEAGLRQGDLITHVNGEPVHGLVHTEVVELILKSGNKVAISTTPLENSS

[4] = target: T3, GST-FLJ00011 PDZ domain 1 (Homo sapiens (Human)), Q9H5P4
T3 chain: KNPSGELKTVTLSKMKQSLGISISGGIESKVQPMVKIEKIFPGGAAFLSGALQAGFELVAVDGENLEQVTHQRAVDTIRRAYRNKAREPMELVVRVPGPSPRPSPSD

[5] = target: GST-DLG1 PDZ domains 1, 2 (Homo sapiens), Q12959
[6] = target: GST-BAI-1 Associated Protein PDZ domain 6 (Homo sapiens (Human)), Q96QZ7
[7] = target: T4, GST-NeDLG PDZ domains 1, 2, Q92796
T4 chain: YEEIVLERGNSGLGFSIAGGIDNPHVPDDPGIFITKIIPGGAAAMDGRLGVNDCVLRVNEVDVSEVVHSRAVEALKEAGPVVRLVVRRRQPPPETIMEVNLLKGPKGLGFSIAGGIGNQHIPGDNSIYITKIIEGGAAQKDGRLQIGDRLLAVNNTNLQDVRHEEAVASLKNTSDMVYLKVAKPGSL

[8] = target: T5, GST-MINT1 PDZ domains 1, 2, Q02410
T5 chain: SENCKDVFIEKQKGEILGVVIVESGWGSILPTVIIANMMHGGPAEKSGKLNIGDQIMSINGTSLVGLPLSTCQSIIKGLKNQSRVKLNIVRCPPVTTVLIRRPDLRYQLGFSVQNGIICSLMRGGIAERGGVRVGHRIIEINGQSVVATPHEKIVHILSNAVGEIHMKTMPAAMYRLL

[9] = target: T6, GST-TIP1 PDZ domain 1 (Table 9 insert) (Homo sapiens (Human)), O14907
T6 chain: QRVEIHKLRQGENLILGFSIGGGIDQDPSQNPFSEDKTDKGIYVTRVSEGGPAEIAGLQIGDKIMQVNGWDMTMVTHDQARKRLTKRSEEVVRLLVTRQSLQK

[10] = target: GST-KIAA1634 PDZ domain 1 (Homo sapiens (Human)), Q5TCQ9
[11] = target: T7, GST-KIAA0380 PDZ domain 1 (Homo sapiens (Human)), O15085
T7 chain: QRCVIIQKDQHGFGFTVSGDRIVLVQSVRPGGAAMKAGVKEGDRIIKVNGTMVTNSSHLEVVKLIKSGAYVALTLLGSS

[12] = target: GST-BAI-1 Associated Protein PDZ domain 2 (Mus musculus (Mouse)), Q6RHR9
[13] = target: GST-PSD95 PDZ domains 1, 2, 3 (Homo sapiens), P78352
[14] = target: T8, GST-INADL PDZ domain 8 (Homo sapiens (Human)), Q8NI35
T8 chain: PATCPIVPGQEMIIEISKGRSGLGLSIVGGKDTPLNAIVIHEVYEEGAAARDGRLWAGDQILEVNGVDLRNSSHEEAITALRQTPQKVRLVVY

[15] = target: GST-BAI-1 Associated Protein PDZ domain 5 (Homo sapiens (Human)), Q96QZ7
[16] = target: T9, GST-KIAA0973 PDZ domain 1 (Homo sapiens (Human)), Q9Y2H9
T9 chain: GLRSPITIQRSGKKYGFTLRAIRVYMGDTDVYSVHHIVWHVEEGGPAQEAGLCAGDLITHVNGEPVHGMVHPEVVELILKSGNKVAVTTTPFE

[17] = target: T10, GST-MINT1 PDZ domain 2 (Mus musculus (Mouse)), B2RUJ5
T10 chain: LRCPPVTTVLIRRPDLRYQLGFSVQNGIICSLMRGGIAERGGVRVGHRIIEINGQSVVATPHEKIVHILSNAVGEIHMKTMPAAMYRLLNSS

[18] = target: T11, GST-PDZK1 PDZ domains 2, 3, 4, Q5T2W1
T11 chain: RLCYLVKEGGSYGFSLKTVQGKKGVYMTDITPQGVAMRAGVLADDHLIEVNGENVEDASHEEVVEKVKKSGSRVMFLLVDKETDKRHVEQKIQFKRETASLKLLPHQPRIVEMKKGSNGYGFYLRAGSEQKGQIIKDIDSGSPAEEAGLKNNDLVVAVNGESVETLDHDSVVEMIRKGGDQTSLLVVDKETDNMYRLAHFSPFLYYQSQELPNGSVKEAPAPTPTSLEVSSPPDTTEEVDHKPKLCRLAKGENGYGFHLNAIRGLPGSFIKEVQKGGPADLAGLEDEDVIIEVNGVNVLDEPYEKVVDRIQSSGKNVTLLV

[19] = target: GST-BAI-1 Associated Protein PDZ domain 4 (Homo sapiens (Human)), Q96QZ7
[20] = target: T12, GST-KIAA1634 PDZ domain 2 (Homo sapiens (Human)), Q5TCQ9
T12 chain: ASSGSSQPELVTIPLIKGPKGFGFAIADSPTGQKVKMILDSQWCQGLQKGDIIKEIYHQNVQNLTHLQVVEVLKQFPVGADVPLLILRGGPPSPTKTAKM

[21] = target: T13, GST-FLJ 10324 PDZ domain 1 [GST: P08515]
T13 chain: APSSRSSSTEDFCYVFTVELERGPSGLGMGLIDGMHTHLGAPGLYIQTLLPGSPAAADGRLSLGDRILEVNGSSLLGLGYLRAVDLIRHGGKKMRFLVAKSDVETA

[22] = target: GST-BAI-1 Associated Protein PDZ domain 3 (Homo sapiens (Human)), Q96QZ7
[23] = target: T14, GST-PTPL1 PDZ domain 2 (Homo sapiens (Human)), Q12923
T14 chain: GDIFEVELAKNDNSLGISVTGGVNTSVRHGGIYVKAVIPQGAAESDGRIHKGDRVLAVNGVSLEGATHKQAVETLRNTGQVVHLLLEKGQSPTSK

[24] = target: T15, GST-AIPC PDZ domain 1 (Homo sapiens (Human)), O15018
T15 chain: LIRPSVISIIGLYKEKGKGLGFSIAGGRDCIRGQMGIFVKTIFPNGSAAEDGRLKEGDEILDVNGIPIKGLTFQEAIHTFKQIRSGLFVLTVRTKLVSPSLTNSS

[25] = target: T16, GST-MUPP1 PDZ domain 9 (Homo sapiens (Human)), O75970
T16 chain: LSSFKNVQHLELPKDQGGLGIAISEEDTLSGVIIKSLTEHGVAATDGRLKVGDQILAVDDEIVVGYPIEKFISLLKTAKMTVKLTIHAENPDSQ

[26] = target: T17, GST-MUPP1 PDZ domain 7 (Homo sapiens (Human)), O75970
T17 chain: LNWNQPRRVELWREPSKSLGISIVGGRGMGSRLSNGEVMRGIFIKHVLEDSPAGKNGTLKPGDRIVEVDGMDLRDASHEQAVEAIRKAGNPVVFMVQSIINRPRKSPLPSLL

[27] = target: T18, GST-MUPP1 PDZ domain 3 (Homo sapiens (Human)), O75970
T18 chain: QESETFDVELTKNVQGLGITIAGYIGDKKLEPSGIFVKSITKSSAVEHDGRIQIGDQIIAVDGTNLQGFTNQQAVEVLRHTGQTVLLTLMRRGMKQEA

[28] = target: T19, GST-PTPL1 PDZ domain 4 (Homo sapiens (Human)), Q12923
T19 chain: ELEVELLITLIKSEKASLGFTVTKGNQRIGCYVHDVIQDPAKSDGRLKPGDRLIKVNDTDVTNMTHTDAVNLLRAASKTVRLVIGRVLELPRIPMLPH

[29] = target: T20, GST-Outer Membrane PDZ domain 1 (Homo sapiens (Human)), P57105
T20 chain: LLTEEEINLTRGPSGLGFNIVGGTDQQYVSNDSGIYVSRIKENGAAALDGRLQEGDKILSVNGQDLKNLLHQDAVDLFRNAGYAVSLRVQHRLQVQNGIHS

[30] = target: T21, GST-MUPP1 PDZ domain 10 (Homo sapiens (Human)), O75970
T21 chain: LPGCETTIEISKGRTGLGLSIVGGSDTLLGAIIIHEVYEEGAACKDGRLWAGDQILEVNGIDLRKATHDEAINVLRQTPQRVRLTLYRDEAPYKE

[31] = target: GST-KIAA0147 PDZ domain 1 (Homo sapiens (Human)), Q14160
[32] = target: T22, GST-KIAA0382 PDZ domain 1 (Canis lupus familiaris (Dog) (Canis familiaris)), A0A8I3
T22 chain: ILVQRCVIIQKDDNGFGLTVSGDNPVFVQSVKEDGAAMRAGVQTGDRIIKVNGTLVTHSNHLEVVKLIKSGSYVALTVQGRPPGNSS
Further: key of the grades not given here.

Sequence of GST-KIAA1634 PDZ domain 1 (Homo sapiens (Human)), Q5TCQ9 (Q5TCQ9 401-502): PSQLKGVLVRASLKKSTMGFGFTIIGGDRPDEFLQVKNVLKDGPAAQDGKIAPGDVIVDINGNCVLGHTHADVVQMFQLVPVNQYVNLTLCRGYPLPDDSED
Sequence of GST-PSD95 PDZ domains 1, 2, 3 (Homo sapiens), P78352 (P78352 62-395): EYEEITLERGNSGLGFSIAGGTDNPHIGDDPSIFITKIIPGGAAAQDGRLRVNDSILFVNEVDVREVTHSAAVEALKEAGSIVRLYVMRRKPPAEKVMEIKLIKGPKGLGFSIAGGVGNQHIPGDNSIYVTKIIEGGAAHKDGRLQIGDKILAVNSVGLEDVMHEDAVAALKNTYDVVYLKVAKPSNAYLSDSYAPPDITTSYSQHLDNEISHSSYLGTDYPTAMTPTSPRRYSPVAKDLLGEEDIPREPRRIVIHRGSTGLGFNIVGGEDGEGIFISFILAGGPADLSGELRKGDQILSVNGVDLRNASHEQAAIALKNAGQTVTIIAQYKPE
Sequence of GST-KIAA807 [GST: P08515] (P08515 whole entry, the tested form may be a part): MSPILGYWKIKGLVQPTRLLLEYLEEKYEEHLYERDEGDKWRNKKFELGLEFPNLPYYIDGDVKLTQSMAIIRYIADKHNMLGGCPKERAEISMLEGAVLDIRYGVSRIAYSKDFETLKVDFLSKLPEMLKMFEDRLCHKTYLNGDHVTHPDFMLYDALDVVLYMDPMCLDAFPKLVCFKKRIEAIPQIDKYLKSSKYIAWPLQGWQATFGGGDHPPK
Sequence of GST-BAI-1 Associated Protein PDZ domain 5 (Homo sapiens (Human)), Q96QZ7 (Q96QZ7 988-1099): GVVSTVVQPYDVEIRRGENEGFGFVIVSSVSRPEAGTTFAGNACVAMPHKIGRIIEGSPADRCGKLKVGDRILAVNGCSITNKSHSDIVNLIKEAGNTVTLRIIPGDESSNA
Sequence of GST-BAI-1 Associated Protein PDZ domain 3 (Homo sapiens (Human)), Q96QZ7 (Q96QZ7 other isoform, or with tags, fused parts or gaps): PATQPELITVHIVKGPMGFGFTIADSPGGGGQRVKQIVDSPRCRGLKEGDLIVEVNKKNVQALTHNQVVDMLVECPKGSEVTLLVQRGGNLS
Sequence of GST-BAI-1 Associated Protein PDZ domain 2 (Mus musculus (Mouse)), Q6RHR9 (Q6RHR9 455-558): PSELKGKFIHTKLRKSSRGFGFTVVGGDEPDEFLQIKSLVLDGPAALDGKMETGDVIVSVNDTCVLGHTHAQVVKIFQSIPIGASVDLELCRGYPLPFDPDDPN
Sequence of GST-BAI-1 Associated Protein PDZ domain 4 (Homo sapiens (Human)), Q96QZ7 (Q96QZ7 other isoform, or with tags, fused parts or gaps): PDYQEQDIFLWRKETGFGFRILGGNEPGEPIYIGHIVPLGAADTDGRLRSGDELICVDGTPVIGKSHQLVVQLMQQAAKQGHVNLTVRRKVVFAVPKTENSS
Sequence of GST-KIAA0147 PDZ domain 1 (Homo sapiens (Human)), Q14160 (Q14160 other isoform, or with tags, fused parts or gaps): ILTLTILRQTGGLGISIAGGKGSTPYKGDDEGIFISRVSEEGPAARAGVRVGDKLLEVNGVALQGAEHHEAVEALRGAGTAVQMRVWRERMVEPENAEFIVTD
Sequence of GST-BAI-1 Associated Protein PDZ domain 6 (Homo sapiens (Human)), Q96QZ7 (Q96QZ7 1143-1233): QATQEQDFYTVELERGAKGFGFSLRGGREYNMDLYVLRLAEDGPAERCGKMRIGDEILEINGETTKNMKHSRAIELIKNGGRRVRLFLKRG

Classification [5]: 3 A450 class | Classification [6]: 1 A450 class | Classification [7]: 2 A450 class | Classification [1]: 2 A450 class | Classification [8]: 1 A450 class | Classification [9]: 5 A450 class | Classification [10]: 1 A450 class | Classification [11]: 1 A450 class | Classification [12]: 1 A450 class | Classification [13]: 3 A450 class | Classification [14]: 1 A450 class
B2: Nedasin (s-form) (peptide)
peptide: RNIEEVYVGGKQVVPFSSSV
modifications: not checked

Classification [5]: 1 A450 class | Classification [15]: 1 A450 class | Classification [1]: 1 A450 class | Classification [8]: 1 A450 class | Classification [18]: 1 A450 class | Classification [19]: 1 A450 class
B4: somatostatin receptor 4 (peptide)
peptide: EALQPEPGRKRIPLTRTTTF
modifications: not checked

Classification [25]: 1 A450 class | Classification [26]: 1 A450 class | Classification [3]: 1 A450 class | Classification [27]: 1 A450 class
B7: bone morphogenetic protein receptor (peptide)
peptide: TALRIKKTLAKMVESQDVKI
modifications: not checked

Classification [28]: 2 A450 class | Classification [1]: 1 A450 class | Classification [25]: 1 A450 class | Classification [26]: 1 A450 class | Classification [3]: 1 A450 class | Classification [27]: 1 A450 class
B8: ephrin B1 (peptide)
peptide: PVYIVQEMPPQSPANIYYKV
modifications: not checked

Classification [1]: 1 A450 class | Classification [8]: 2 A450 class | Classification [10]: 1 A450 class | Classification [22]: 1 A450 class
B10: claudin 2 (peptide)
peptide: PGQPPKVKSEFNSYSLTGYV
modifications: not checked

The remaining lines, values behind:

B1: Mannose Receptor (peptide)
peptide: GTSDMKDLVGNIEQNEHSVI
modifications: not checked
Classification [1]: 1 A450 class | Classification [2]: 1 A450 class | Classification [3]: 1 A450 class | Classification [4]: 1 A450 class

B3: CD46 (peptide)
peptide: KKGTYLTDETHREVKFTSL
modifications: not checked
Classification [15]: 1 A450 class | Classification [1]: 4 A450 class | Classification [8]: 1 A450 class | Classification [16]: 2 A450 class | Classification [3]: 5 A450 class | Classification [17]: 1 A450 class

B5: ErbB-4 receptor (peptide)
peptide: SLKPGTVLPPPPYRHRNTVV
modifications: not checked
Classification [20]: 1 A450 class | Classification [5]: 1 A450 class | Classification [7]: 1 A450 class | Classification [21]: 1 A450 class | Classification [22]: 1 A450 class | Classification [13]: 1 A450 class | Classification [23]: 2 A450 class

B6: Fas Ligand (peptide)
peptide: SSKSKSSEESQTFFGLYKL
modifications: not checked
Classification [1]: 5 A450 class | Classification [24]: 2 A450 class | Classification [8]: 4 A450 class | Classification [16]: 2 A450 class | Classification [2]: 2 A450 class | Classification [11]: 3 A450 class | Classification [3]: 5 A450 class

B9: APC-adenomatous polyposis coli protein (peptide)
peptide: ESSGTQSPKRHSGSYLVTSV
modifications: not checked
Classification [20]: 1 A450 class | Classification [5]: 5 A450 class | Classification [7]: 4 A450 class | Classification [15]: 1 A450 class | Classification [1]: 1 A450 class | Classification [29]: 2 A450 class | Classification [9]: 3 A450 class | Classification [10]: 1 A450 class | Classification [3]: 1 A450 class | Classification [30]: 1 A450 class | Classification [4]: 1 A450 class | Classification [12]: 1 A450 class | Classification [13]: 5 A450 class | Classification [31]: 1 A450 class | Classification [32]: 1 A450 class | Classification [14]: 2 A450 class
